Results reported in IntAct's records for PubMed 29892012.

B1: Kinetochore protein NDC80 homolog (Homo sapiens), O14777 (parent)
chain: MKRSSVSSGGAGRLSMQELRSQDVNKQGLYTPQTKEKPTFGKLSINKPTSERKVSLFGKRTSGHGSRNSQLGIFSSSEKIKDPRPLNDKAFIQQCIRQLCEFLTENGYAHNVSMKSLQAPSVKDFLKIFTFLYGFLCPSYELPDTKFEEEVPRIFKDLGYPFALSKSSMYTVGAPHTWPHIVAALVWLIDCIKIHTAMKESSPLFDDGQPWGEETEDGIMHNKLFLDYTIKCYESFMSGADSFDEMNAELQSKLKDLFNVDAFKLESLEAKNRALNEQIARLEQEREKEPNRLESLRKLKASLQGDVQKYQAYMSNLESHSAILDQKLNGLNEEIARVELECETIKQENTRLQNIIDNQKYSVADIERINHERNELQQTINKLTKDLEAEQQKLWNEELKYARGKEAIETQLAEYHKLARKLKLIPKGAENSKGYDFEIKFNPEAGANCLVKYRAQVYVPLKELLNETEEEINKALNKKMGLEDTLEQLNAMITESKRSVRTLKEEVQKLDDLYQQKIKEAEEEDEKCASELESLEKHKHLLESTVNQGLSEAMNELDAVQREYQLVVQTTTEERRKVGNNLQRLLEMVATHVGSVEKHLEEQIAKVDREYEECMSEDLSENIKEIRDKYEKKATLIKSSEE
B2: Coiled-coil domain-containing protein 120 (Homo sapiens), Q96HB5-4 (parent)
chain: MRREPRYQGQVGPDIHTDSERTLSSHQPRPLDSTKMEVKGQLISSPTFNAPAALFGEAAPQVKSERLRGLLDRQRTLQEALSLKLQELRKVCLQEAELTGQLPPECPLEPGERPQLVRRRPPTARAYPPPHPNQAHHSLCPAEELALEALEREVSVQQQIAAAARRLALAPDLSTEQRRRRRQVQADALRRLHELEEQLRDVRARLGLPVLPLPQPLPLSTGSVITTQGVCLGMRLAQLSQEDVVLHSESSSLSESGASHDNEEPHGCFSLAERPSPPKAWDQLRAVSGGSPERRTPWKPPPSDLYGDLKSRRNSVASPTSPTRSLPRSASSFEGRSVPATPVLTRGAGPQLCKPEGLHSRQWSGSQDSQMGFPRADPASDRASLFVARTRRSNSSEALLVDRAAGGGAGSPPAPLAPSASGPPVCKSSEVLYERPQPTPAFSSRTAGPPDPPRAARPSSAAPASRGAPRLPPVCGDFLLDYSLDRGLPRSGGGTGWGELPPAAEVPGPLSRRDGLLTMLPGPPPVYAADSNSPLLRTKDPHTRATRTKPCGLPPEAAEGPEVHPNPLLWMPPPTRIPSAGERSGHKNLALEGLRDWYIRNSGLAAGPQRRPVLPSVGPPHPPFLHARCYEVGQALYGAPSQAPLPHSRSFTAPPVSGRYYADFLYPPELSARLSDLTLEGEQSSSSDTQTPGTLV
partner: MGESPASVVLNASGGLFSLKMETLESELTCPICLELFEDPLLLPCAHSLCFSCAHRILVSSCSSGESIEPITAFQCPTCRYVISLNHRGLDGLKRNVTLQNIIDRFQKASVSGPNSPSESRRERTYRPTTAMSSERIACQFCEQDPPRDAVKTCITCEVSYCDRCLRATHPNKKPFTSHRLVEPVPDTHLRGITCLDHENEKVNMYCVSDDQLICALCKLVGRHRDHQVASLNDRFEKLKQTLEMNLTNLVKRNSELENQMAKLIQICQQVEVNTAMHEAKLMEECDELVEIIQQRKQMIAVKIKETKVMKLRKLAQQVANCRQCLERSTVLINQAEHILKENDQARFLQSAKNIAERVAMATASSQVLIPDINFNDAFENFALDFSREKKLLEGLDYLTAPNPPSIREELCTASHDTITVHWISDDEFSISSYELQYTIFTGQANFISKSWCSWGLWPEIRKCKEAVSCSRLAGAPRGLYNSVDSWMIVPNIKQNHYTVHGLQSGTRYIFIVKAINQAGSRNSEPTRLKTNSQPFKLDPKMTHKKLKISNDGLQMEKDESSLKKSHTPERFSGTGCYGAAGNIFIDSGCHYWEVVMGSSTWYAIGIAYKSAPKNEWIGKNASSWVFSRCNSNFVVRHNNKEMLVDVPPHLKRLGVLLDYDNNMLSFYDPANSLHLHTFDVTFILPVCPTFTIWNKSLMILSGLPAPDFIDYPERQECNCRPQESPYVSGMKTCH
B3: Chaperone Ric-8A (Homo sapiens), Q9NPQ8 (parent)
chain: MEPRAVAEAVETGEEDVIMEALRSYNQEHSQSFTFDDAQQEDRKRLAELLVSVLEQGLPPSHRVIWLQSVRILSRDRNCLDPFTSRQSLQALACYADISVSEGSVPESADMDVVLESLKCLCNLVLSSPVAQMLAAEARLVVKLTERVGLYRERSFPHDVQFFDLRLLFLLTALRTDVRQQLFQELKGVRLLTDTLELTLGVTPEGNPPPTLLPSQETERAMEILKVLFNITLDSIKGEVDEEDAALYRHLGTLLRHCVMIATAGDRTEEFHGHAVNLLGNLPLKCLDVLLTLEPHGDSTEFMGVNMDVIRALLIFLEKRLHKTHRLKESVAPVLSVLTECARMHRPARKFLKAQVLPPLRDVRTRPEVGEMLRNKLVRLMTHLDTDVKRVAAEFLFVLCSESVPRFIKYTGYGNAAGLLAARGLMAGGRPEGQYSEDEDTDTDEYKEAKASINPVTGRVEEKPPNPMEGMTEEQKEHEAMKLVTMFDKLSRNRVIQPMGMSPRGHLTSLQDAMCETMEQQLSSDPDSDPD
partner: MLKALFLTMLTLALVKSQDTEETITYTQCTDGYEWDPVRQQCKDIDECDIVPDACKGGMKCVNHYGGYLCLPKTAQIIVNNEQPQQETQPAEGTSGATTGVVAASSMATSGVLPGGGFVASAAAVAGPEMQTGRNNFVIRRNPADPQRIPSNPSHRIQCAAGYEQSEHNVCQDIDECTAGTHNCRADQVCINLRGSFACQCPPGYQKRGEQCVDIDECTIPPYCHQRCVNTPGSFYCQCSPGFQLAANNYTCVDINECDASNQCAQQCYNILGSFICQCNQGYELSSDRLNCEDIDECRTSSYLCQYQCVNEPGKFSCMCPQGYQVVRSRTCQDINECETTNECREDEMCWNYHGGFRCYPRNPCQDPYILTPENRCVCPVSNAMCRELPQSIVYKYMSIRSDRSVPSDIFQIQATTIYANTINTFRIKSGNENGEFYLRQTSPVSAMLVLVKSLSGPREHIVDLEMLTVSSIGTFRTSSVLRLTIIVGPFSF

Variants of: B1
Conditions: with tnip1_human TNIP1, Q15025
Sequence of tnip1_human TNIP1, Q15025 (Q15025 whole entry): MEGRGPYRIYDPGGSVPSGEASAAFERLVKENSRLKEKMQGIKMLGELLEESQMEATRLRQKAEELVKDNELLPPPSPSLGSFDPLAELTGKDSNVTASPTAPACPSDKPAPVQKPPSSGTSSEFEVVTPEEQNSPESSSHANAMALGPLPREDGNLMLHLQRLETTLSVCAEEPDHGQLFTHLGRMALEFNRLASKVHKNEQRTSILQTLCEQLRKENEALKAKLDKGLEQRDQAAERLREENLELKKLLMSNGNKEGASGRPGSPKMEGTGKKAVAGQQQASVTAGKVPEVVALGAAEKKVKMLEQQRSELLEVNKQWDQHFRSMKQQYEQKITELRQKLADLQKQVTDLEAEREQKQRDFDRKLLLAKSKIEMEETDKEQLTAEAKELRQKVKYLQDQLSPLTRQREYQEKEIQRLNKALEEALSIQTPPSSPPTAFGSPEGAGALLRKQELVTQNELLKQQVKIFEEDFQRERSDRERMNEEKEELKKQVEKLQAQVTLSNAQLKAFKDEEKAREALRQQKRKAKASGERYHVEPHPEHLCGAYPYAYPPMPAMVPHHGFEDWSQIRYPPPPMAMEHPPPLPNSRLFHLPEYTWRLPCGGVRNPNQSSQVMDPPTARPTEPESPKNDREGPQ

Row | effect of a mutation on the interaction | Variant
1 | with no effect | K288E

Variants of: B1
Conditions: with amol2_human AMOTL2, Q9Y2J4
Sequence of amol2_human AMOTL2, Q9Y2J4 (Q9Y2J4 whole entry): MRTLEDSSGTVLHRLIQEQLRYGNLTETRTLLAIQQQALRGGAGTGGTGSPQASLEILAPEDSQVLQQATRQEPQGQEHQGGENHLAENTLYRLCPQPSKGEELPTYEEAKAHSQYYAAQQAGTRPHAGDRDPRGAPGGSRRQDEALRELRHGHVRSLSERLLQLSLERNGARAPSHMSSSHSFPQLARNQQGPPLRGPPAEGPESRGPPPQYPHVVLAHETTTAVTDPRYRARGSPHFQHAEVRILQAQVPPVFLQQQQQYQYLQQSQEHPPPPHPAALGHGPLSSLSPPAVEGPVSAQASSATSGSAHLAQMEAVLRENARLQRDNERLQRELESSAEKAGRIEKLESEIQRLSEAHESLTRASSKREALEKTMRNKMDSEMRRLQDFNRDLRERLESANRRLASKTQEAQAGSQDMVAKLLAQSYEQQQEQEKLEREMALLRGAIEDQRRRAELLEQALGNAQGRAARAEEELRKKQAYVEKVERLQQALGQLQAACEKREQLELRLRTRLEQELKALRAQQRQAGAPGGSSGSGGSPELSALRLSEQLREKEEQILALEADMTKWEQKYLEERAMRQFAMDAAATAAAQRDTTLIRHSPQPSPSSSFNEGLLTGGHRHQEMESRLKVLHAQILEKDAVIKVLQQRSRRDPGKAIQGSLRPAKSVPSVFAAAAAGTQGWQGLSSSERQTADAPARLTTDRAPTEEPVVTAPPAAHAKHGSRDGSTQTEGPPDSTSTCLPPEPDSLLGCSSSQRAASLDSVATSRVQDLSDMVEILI

Row | effect of a mutation on the interaction | Variant
2 | with no effect | K288E

Variants of: B1
Conditions: with atf4_human ATF4, P18848
Sequence of atf4_human ATF4, P18848 (P18848 whole entry): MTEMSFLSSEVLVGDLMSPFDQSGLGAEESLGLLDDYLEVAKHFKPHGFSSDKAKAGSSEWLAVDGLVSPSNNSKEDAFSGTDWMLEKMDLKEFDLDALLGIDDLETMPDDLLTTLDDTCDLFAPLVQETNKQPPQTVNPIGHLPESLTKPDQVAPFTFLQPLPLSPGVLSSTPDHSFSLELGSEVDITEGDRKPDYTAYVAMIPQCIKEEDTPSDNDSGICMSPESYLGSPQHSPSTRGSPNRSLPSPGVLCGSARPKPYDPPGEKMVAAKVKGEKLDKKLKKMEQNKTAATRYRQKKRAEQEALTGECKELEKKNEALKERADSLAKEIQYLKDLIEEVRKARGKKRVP

Row | effect of a mutation on the interaction | Variant
3 | with no effect | K288E

Variants of: B1
Conditions: with txlna_human TXLNA

Row | effect of a mutation on the interaction | Variant
4 | with no effect | K288E

Variants of: B2
Conditions: with trim1_human MID2, Q9UJV3

Row | effect of a mutation on the interaction | Variant
5 | with no effect | R346W

Variants of: B3
Conditions: with fbln3_human EFEMP1, Q12805

Row | effect of a mutation on the interaction | Variant
6 | with no effect | K319E
